# Earlier results in publication PMC3090270 (Structure (London, England : 1993), 2010).
# System: RI subunits
# Details: ref Huang et al., 1997b (D-AKAP1), 1997a (D-AKAP2), Reinton et al., 2000 (AKAP220), Gronholm et al., 2003 (Merlin), Li et al., 2001 (Pap7)
row,Molecule,binding to RI subunits (dual-specific)
1,"Merlin: AKAP shown to bind RI subunits (protein, UniProt P35240 1-595, looked up) Merlin: MAGAIASRMSFSSLKRKQPKTFTVRIVTMDAEMEFNCEMKWKGKDLFDLVCRTLGLRETWFFGLQYTIKDTVAWLKMDKKVLDHDVSKEEPVTFHFLAKFYPENAEEELVQEITQHLFFLQVKKQILDEKIYCPPEASVLLASYAVQAKYGDYDPSVHKRGFLAQEELLPKRVINLYQMTPEMWEERITAWYAEHRGRARDEAEMEYLKIAQDLEMYGVNYFAIRNKKGTELLLGVDALGLHIYDPENRLTPKISFPWNEIRNISYSDKEFTIKPLDKKIDVFKFNSSKLRVNKLILQLCIGNHDLFMRRRKADSLEVQQMKAQAREEKARKQMERQRLAREKQMREEAERTRDELERRLLQMKEEATMANEALMRSEETADLLAEKAQITEEEAKLLAQKAAEAEQEMQRIKATAIRTEEEKRLMEQKVLEAEVLALKMAEESERRAKEADQLKQDLQEAREAERRAKQKLLEIATKPTYPPMNPIPAPLPPDIPSFNLIGDSLSFDFKDTDMKRLSMEIEKEKVEYMEKSKHLQEQLNELKTEIEALKLKERETALDILHNENSDRGGSSKHNTIKKLTLQSAKSRVAFFEEL",bind RI subunits
2,"Pap7: AKAP shown to bind RI subunits (protein, UniProt Q9H3P7 1-528, looked up) Golgi resident protein GCP60: MAAVLNAERLEVSVDGLTLSPDPEERPGAEGAPLLPPPLPPPSPPGSGRGPGASGEQPEPGEAAAGGAAEEARRLEQRWGFGLEELYGLALRFFKEKDGKAFHPTYEEKLKLVALHKQVLMGPYNPDTCPEVGFFDVLGNDRRREWAALGNMSKEDAMVEFVKLLNRCCHLFSTYVASHKIEKEEQEKKRKEEEERRRREEEERERLQKEEEKRRREEEERLRREEEERRRIEEERLRLEQQKQQIMAALNSQTAVQFQQYAAQQYPGNYEQQQILIRQLQEQHYQQYMQQLYQVQLAQQQAALQKQQEVVVAGSSLPTSSKVNATVPSNMMSVNGQAKTHTDSSEKELEPEAAEEALENGPKESLPVIAAPSMWTRPQIKDFKEKIQQDADSVITVGRGEVVTVRVPTHEEGSYLFWEFATDNYDIGFGVYFEWTDSPNTAVSVHVSESSDDDEEEEENIGCEEKAKKNANKPLLDEIVPVYRRDCHEEVYAGSHQYPGRGVYLLKFDNSYSLWRSKSVYYRVYYTR",bind RI subunits
3,"D-AKAP1: dual-specific AKAP (protein, UniProt Q92667 30-903, looked up) A-kinase anchor protein 1, …: KGHVSSHDEQQVEAGAVQLRADPAIKEPLPVEDVCPKVVSTPPSVTEPPEKELSTVSKLPAEPPALLQTHPPCRRSESSGILPNTTDMRLRPGTRRDDSTKLELALTGGEAKSIPLECPLSSPKGVLFSSKSAEVCKQDSPFSRVPRKVQPGYPVVPAEKRSSGERARETGGAEGTGDAVLGEKVLEEALLSREHVLELENSKGPSLASLEGEEDKGKSSSSQVVGPVQEEEYVAEKLPSRFIESAHTELAKDDAAPAPPVADAKAQDRGVEGELGNEESLDRNEEGLDRNEEGLDRNEESLDRNEEGLDRNEEIKRAAFQIISQVISEATEQVLATTVGKVAGRVCQASQLQGQKEESCVPVHQKTVLGPDTAEPATAEAAVAPPDAGLPLPGLPAEGSPPPKTYVSCLKSLLSSPTKDSKPNISAHHISLASCLALTTPSEELPDRAGILVEDATCVTCMSDSSQSVPLVASPGHCSDSFSTSGLEDSCTETSSSPRDKAITPPLPESTVPFSNGVLKGELSDLGAEDGWTMDAEADHSGGSDRNSMDSVDSCCSLKKTESFQNAQAGSNPKKVDLIIWEIEVPKHLVGRLIGKQGRYVSFLKQTSGAKIYISTLPYTQSVQICHIEGSQHHVDKALNLIGKKFKELNLTNIYAPPLPSLALPSLPMTSWLMLPDGITVEVIVVNQVNAGHLFVQQHTHPTFHALRSLDQQMYLCYSQPGIPTLPTPVEITVICAAPGADGAWWRAQVVASYEETNEVEIRYVDYGGYKRVKVDVLRQIRSDFVTLPFQGAEVLLDSVMPLSDDDQFSPEADAAMSEMTGNTALLAQVTSYSPTGLPLIQLWSVVGDEVVLINRSLVERGLAQWVDSYYTSL",bind RI subunits
